# Test results taken from patent US20090203140.
# What was measured:
# Test in all cases: cell_activity
# [1] = system: ZFN 12805 golden; settings: pair 04.05 (with 12804), 5 ng mRNA
# [2] = system: ZFN 12806 golden; settings: pair 04.06 (with 12804), 5 ng mRNA
# [3] = system: ZFN 12776 golden; settings: pair 75.76 (with 12775), 7 ng mRNA, golden b1 heterozygous embryos
# [4] = system: ZFN 13370 notail; settings: pair ntl_68 (inferred with 13368), 5 ng mRNA; 16% in pair ntl_78
# [5] = system: ZFN 12775 golden; settings: pair 75.76 (with 12776), 7 ng mRNA, golden b1 heterozygous embryos
# [6] = system: ZFN 13368 notail; settings: pair ntl_68 (inferred 13368 with 13370), 5 ng mRNA, ntl b195 het x wildtype cross
# [7] = system: ZFN 12804 golden; settings: pair 04.05 (with 12805), 5 ng mRNA; also 32% in pair 04.06
sequence,measurement,setting,value
ACCGTCTGGATGAACCACGGCAGGCCCA (double strand) [golden 12805 target],activity (% embryos with unpigmented eye clones),[1],32
ACCGTCTGGATGAACCACGGCAGGCCCA (double strand) [golden 12806 target],activity (% embryos with unpigmented eye clones),[2],32
ATGCACAGCAGGTTATAGACAGCAGAAC (double strand) [golden 12776 target],activity (% embryos with unpigmented eye clones),[3],23
GCATTAGGGTCGAGACCGGTGACACTGG (double strand) [no tail 13370 target],activity (% no tail-like embryos),[4],27
GTGCAGCGTGCGGCCTGCTGTCCTCTGC (double strand) [golden 12775 target],activity (% embryos with unpigmented eye clones),[5],23
TGTACTCGGTCCTGCTGGATTTTGTGGC (double strand) [no tail 13368 target],activity (% no tail-like embryos),[6],27
TTGTTGACGTGGGCTCCCCGGTGGATGT (double strand) [golden 12804 target],activity (% embryos with unpigmented eye clones),[7],32
